For assay [1], the target named is T1, MOR1 (endogenous, mouse spinal cord) (mouse, UniProt P42866 1-398).
T1 construct: Untagged native receptor; precipitated with a rabbit anti-MOR1 antibody (Neuromics)
Briefly: co-IP with anti-MOR1 antibody from spinal cord membrane preparation, immunoblot for GRPR. For orientation: In western blotting, separated proteins are transferred to a membrane and probed.

The target in assay [2] is T2, MOR1D (endogenous, mouse spinal cord) (mouse, UniProt P42866-9 1-393).
T2 construct: Untagged native receptor in spinal cord membrane preparations and sections; MOR1D is a splice isoform of it; also called spinal MOR1D
T2 sequence (P42866 1-386, tags or fused parts left off): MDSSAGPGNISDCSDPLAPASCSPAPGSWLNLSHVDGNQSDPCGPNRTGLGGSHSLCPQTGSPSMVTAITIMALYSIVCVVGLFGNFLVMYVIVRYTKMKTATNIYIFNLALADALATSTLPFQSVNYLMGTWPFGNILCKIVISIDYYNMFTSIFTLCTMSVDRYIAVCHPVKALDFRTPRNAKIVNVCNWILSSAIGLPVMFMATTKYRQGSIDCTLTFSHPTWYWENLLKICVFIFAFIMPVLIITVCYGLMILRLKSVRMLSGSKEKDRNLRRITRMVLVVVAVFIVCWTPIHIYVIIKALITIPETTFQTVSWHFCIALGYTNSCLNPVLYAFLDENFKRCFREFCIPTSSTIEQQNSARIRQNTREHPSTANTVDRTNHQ
Nature of the assay: co-IP with anti-MOR1D antibody from spinal cord membrane preparation, immunoblot for GRPR.

T1 sequence (P42866 whole entry): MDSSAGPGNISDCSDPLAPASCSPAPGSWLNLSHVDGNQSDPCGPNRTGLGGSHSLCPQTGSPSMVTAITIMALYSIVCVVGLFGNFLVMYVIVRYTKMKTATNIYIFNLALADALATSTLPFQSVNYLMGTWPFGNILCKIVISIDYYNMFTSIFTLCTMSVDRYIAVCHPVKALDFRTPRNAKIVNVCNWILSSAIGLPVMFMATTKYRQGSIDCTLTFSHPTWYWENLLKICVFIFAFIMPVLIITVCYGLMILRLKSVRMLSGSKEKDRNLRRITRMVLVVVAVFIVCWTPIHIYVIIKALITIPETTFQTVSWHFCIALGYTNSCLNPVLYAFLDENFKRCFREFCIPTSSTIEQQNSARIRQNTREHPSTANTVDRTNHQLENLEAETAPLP

B1: GRPR (endogenous, mouse spinal cord) (receptor, UniProt P21729 1-384, looked up)
chain: MAPNNCSHLNLDVDPFLSCNDTFNQSLSPPKMDNWFHPGFIYVIPAVYGLIIVIGLIGNITLIKIFCTVKSMRNVPNLFISSLALGDLLLLVTCAPVDASKYLADRWLFGRIGCKLIPFIQLTSVGVSVFTLTALSADRYKAIVRPMDIQASHALMKICLKAALIWIVSMLLAIPEAVFSDLHPFHVKDTNQTFISCAPYPHSNELHPKIHSMASFLVFYVIPLAIISVYYYFIARNLIQSAYNLPVEGNIHVKKQIESRKRLAKTVLVFVGLFAFCWLPNHVIYLYRSYHYSEVDTSMLHFVTSICARLLAFTNSCVNPFALYLLSKSFRKQFNTQLLCCQPGLMNRSHSTGRSTTCMTSFKSTNPSATFSLINRNICHEGYV
notes: Untagged native receptor in spinal cord membrane preparations; also called gastrin-releasing peptide receptor
In the case of B1, the binding result in assay [1] is on record as “no binding”; in assay [2], “binds”.

(Values after US20130065832A1 (WASHINGTON UNIVERSITY, published 2013).)
